For 31 molecules, Kd results are on record in PMC10786891, “Massively parallel profiling of RNA-targeting CRISPR-Cas13d”.

The chains are these.
T1: EsCas13d, nuclease-dead (Eubacterium siraeum, UniProt B0MS50, R295A;H300A;R849A;H854A)
T1 sequence: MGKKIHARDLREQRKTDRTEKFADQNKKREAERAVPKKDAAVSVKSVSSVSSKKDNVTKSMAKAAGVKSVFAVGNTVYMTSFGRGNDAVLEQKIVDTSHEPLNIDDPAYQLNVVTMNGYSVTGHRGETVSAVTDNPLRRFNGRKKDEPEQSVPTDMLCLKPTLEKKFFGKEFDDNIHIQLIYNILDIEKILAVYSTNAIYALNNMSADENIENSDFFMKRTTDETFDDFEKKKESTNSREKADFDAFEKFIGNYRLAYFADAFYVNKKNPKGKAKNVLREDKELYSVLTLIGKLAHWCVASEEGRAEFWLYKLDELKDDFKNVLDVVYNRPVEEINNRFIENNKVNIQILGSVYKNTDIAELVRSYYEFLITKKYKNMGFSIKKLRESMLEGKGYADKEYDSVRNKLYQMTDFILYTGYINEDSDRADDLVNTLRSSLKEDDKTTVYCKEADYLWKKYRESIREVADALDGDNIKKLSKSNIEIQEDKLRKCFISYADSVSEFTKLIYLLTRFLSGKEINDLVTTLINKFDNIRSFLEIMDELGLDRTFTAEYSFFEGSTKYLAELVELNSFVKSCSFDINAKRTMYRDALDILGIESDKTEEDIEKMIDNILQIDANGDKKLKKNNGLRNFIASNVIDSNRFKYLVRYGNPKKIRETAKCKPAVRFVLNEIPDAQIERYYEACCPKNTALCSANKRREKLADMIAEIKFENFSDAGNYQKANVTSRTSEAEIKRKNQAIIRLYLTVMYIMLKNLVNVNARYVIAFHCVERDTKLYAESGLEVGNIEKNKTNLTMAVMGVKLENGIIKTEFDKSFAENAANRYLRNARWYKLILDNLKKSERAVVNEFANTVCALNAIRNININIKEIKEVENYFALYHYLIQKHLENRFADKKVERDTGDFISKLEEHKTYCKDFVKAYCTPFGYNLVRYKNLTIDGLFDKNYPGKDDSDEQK

B1: target 3 G4U,U21A (mixed)
RNA 1: CACCCGUGCAAAAUUGCAGGGGUCUAAAACGACCUGAAUAUUUCAGAUCAAA
RNA 2: GGGAAUGGAUCCACAUCUACGAAUUCGUUUAUGAUCUGAAAUAUUCAUGUCUGCAGAUCGGAAGAGCACACGU
B2: target 3 C6A,A11C (mixed)
RNA 1: B1 RNA 1
RNA 2: B1 RNA 2 with A31U, A41C, C46A, U48G
B3: target 3 insC 3' of 4,insU 3' of 1 (mixed)
RNA 1: B1 RNA 1
RNA 2: GGGAAUGGAUCCACAUCUACGAAUUCGUUUUUGAUCUGAAAUAUUCAGCGUCUUGCAGAUCGGAAGAGCACACGU
B4: target 3 A5G,A11G (mixed)
RNA 1: B1 RNA 1
RNA 2: B1 RNA 2 with A31U, A41G, A47G, U48G
B5: target 3 insG 3' of 6,insG 3' of 6 (mixed)
RNA 1: B1 RNA 1
RNA 2: B3 RNA 2 with A47G, C49A, U51G, C52U, U53C
B6: target 3 insU 3' of 6,insC 3' of 3 (mixed)
RNA 1: B1 RNA 1
RNA 2: B3 RNA 2 with A47U, G48A, C49G, U51C, C52U, U53C
B7: target 3 del1,del14 (mixed)
RNA 1: B1 RNA 1
RNA 2: GGGAAUGGAUCCACAUCUACGAAUUCGUUUUUGAUCUAAAUAUUCAGGUUGCAGAUCGGAAGAGCACACGU
B8: target 3 insU 3' of 9,insC 3' of 9 (mixed)
RNA 1: B1 RNA 1
RNA 2: B3 RNA 2 with U45C, C46U, A47U, G48C, C49A, U51G, C52U, U53C
B9: target 3 insU 3' of 5,insG 3' of 2 (mixed)
RNA 1: B1 RNA 1
RNA 2: B3 RNA 2 with G48U, C49G, C52G, U53C
B10: target 3 insC 3' of 22,insA 3' of 2 (mixed)
RNA 1: B1 RNA 1
RNA 2: GGGAAUGGAUCCACAUCUACGAAUUCGUUUCUUGAUCUGAAAUAUUCAGGUACUGCAGAUCGGAAGAGCACACGU
B11: target 3 insA 3' of 7,insG 3' of 2 (mixed)
RNA 1: B1 RNA 1
RNA 2: B3 RNA 2 with C46A, A47C, G48A, C49G, C52G, U53C
B12: target 3 C1U,G14U (mixed)
RNA 1: B1 RNA 1
RNA 2: B1 RNA 2 with A31U, G38U, U48G, C51U
B13: target 3 insC 3' of 4,insA 3' of 1 (mixed)
RNA 1: B1 RNA 1
RNA 2: B3 RNA 2 with U53A
B14: target 3 insA 3' of 6,insU 3' of 4 (mixed)
RNA 1: B1 RNA 1
RNA 2: B3 RNA 2 with G48A, C49G, G50U, U51G, C52U, U53C
B15: target 3 insU 3' of 22,insA 3' of 6 (mixed)
RNA 1: B1 RNA 1
RNA 2: B10 RNA 2 with C31U, G49A, U51G, A52U
B16: target 3 insC 3' of 5,insU 3' of 1 (mixed)
RNA 1: B1 RNA 1
RNA 2: B3 RNA 2 with G48C, C49G
B17: target 3 C1A,G14U (mixed)
RNA 1: B1 RNA 1
RNA 2: B1 RNA 2 with A31U, G38U, U48G, C51A
B18: target 3 insC 3' of 4,insC 3' of 2 (mixed)
RNA 1: B1 RNA 1
RNA 2: B3 RNA 2 with U53C
B19: target 3 insC 3' of 5,insG 3' of 5 (mixed)
RNA 1: B1 RNA 1
RNA 2: B3 RNA 2 with G48C, C49G, U51G, C52U, U53C
B20: target 3 del1,del2 (mixed)
RNA 1: B1 RNA 1
RNA 2: B7 RNA 2 with A38G, U41A, A42U, U43A, C45U, A46C, G47A, U49G
B21: target 3 G19U,U22G (mixed)
RNA 1: B1 RNA 1
RNA 2: B1 RNA 2 with U30G, A31U, G33U, U48G
B22: target 3 insA 3' of 3,insC 3' of 2 (mixed)
RNA 1: B1 RNA 1
RNA 2: B3 RNA 2 with C49G, G50A, U53C
B23: target 3 C6U (mixed)
RNA 1: B1 RNA 1
RNA 2: B1 RNA 2 with A31U, C46U, U48G
B24: target 3 insC 3' of 7,insA 3' of 6 (mixed)
RNA 1: B1 RNA 1
RNA 2: B3 RNA 2 with A47C, G48A, C49A, U51G, C52U, U53C
B25: target 3 insA 3' of 10,insA 3' of 7 (mixed)
RNA 1: B1 RNA 1
RNA 2: B3 RNA 2 with U44A, C46U, G48C, C49A, U51G, C52U, U53C
B26: target 3 insC 3' of 5,insA 3' of 2 (mixed)
RNA 1: B1 RNA 1
RNA 2: B3 RNA 2 with G48C, C49G, C52A, U53C
B27: target 3 insA 3' of 3,insC 3' of 3 (mixed)
RNA 1: B1 RNA 1
RNA 2: B3 RNA 2 with C49G, G50A, U51C, C52U, U53C
B28: target 3 del6,del8 (mixed)
RNA 1: B1 RNA 1
RNA 2: B7 RNA 2 with A38G, U41A, A42U, U43A, C45A, A46G, G48U, U49C
B29: target 1 insC 3' of 16,insC 3' of 14 (mixed)
RNA 1: CACCCGUGCAAAAAUGCAGGGGUCUAAAACUGAGCGGAUAACCUCUCUAUGG
RNA 2: GGGAAUGGAUCCACAUCUACGAAUUCGUACCAUAGACGACGGUUAUCCGCUCACCGAGAUCGGAAGAGCACACGU
B30: target 1 G5C,U8C (mixed)
RNA 1: B29 RNA 1
RNA 2: GGGAAUGGAUCCACAUCUACGAAUUCGUACCAUAGAGAGGUUACCCCCUCACCGAGAUCGGAAGAGCACACGU
B31: target 1 C2U,G12A (mixed)
RNA 1: B29 RNA 1
RNA 2: B30 RNA 2 with G40A, C44U, C47G, C50U

Where a chain is given by its changes, count along the chain named. Numbers in names are those of the source.

The series concerns the target T1, EsCas13d, nuclease-dead. Nature of the series: crRNA (strand 1, pre-loaded); Mg2+; 40 mM Tris-HCl pH 7.5, 150 mM NaCl, 6 mM MgCl2, 1 mM DTT, 0.1% Tween-20, 0.2 mg/ml BSA; 25 C; 10 min per concentration, then washed. To be noted: tags: His6-TwinStrep-SUMO cleaved; N-terminal SNAP kept (SNAP-Surface 488); label: 3' end held by stalled T7 RNA polymerase.
For the molecule B1, the affinity, expressed as Kd, was 20.6 ± 2.15 nM.

For B2, the Kd amounted to 45.2 ± 11.2 nM. The figure for B3 is 72.5 ± 33.5 nM; for B4 it is 73.5 ± 28.5 nM; for B5 it is 23.6 ± 3.2 nM. Molecule B6 showed a Kd of 28.6 ± 2.95 nM. For B7, the Kd was found to be 110 ± 55 nM.

Regarding B8, the Kd came out at 96.5 ± 19 nM. B9 had a Kd of 6.95 ± 1 nM. In turn, B10 yielded a Kd of 59 ± 10 nM. B11 yielded a Kd of 28.2 ± 4.15 nM.

For B12, the dissociation constant Kd stood at 72.5 ± 19 nM. B13 gave a Kd of 69.5 ± 28.5 nM. In the case of B14, the Kd came to 2.25 ± 0.23 nM. B15 returned an equilibrium dissociation constant (Kd) of 7.2 ± 0.55 nM. The figure for B16 is 10.8 ± 1.25 nM; for B17 it is 79 ± 30.5 nM; for B18 it is 73 ± 24 nM. As to B19, the equilibrium dissociation constant (Kd) amounted to 5.57 ± 0.52 nM. The molecule B20 registered a Kd of 44.5 ± 2.55 nM. On to B21, for which the Kd stood at 108 ± 15 nM.

For the molecule B22, the affinity, expressed as Kd, was 120 ± 50 nM. Regarding B23, the affinity, expressed as Kd, was 13.2 ± 1.05 nM.

Take B24: the Kd turned out to be 76 ± 14 nM. In the case of B25, binding was put at a Kd of 52 ± 8 nM.

Molecule B26 displayed a Kd of 15.8 ± 1.6 nM.

Take B27: the dissociation constant Kd is 22.8 ± 2.35 nM. The molecule B28 yielded a dissociation constant Kd of 70.5 ± 11 nM. In turn, B29 showed a dissociation constant (Kd) of 75 ± 19 nM.

Molecule B30 came in with a Kd of 6.4 ± 0.4 nM.

B31 registered a Kd of 4.5 ± 0.14 nM.

Usually Kd stands for the constant that tells how readily two partners part at equilibrium. High values mean weaker binding, low ones tighter binding.
